T1: Sla1-2, P32790
T1 sequence (P32790 60-140, looked up): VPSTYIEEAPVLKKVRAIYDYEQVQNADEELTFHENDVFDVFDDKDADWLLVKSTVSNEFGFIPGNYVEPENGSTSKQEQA

T2: Sla1-3, P32790
T2 sequence (P32790 344-424, looked up): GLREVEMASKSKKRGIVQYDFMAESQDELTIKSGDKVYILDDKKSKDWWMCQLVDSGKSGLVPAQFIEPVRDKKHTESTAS

T3: Bzz1-2, P38822
T3 sequence (P38822 568-633, looked up): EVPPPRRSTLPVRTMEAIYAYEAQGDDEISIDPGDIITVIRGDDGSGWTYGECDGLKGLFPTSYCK

T4: Hof1, Q05080
T4 sequence (Q05080 590-669, looked up): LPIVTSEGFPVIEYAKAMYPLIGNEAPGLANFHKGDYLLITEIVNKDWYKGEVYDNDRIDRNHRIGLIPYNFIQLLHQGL

T5: Cyk3, Q07533
T5 sequence (Q07533 1-83, looked up): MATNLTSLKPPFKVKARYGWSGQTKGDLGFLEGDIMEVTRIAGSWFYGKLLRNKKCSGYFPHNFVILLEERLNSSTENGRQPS

T6: Bud14, P27637
T6 sequence (P27637 247-328, looked up): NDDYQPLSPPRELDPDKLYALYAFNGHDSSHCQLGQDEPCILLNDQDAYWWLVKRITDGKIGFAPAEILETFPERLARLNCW

T7: Boi2, P39969
T7 sequence (P39969 32-116, looked up): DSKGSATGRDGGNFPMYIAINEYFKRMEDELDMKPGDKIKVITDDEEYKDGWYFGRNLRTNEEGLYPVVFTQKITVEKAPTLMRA

T8: Fus1, P11710
T8 sequence (P11710 432-512, looked up): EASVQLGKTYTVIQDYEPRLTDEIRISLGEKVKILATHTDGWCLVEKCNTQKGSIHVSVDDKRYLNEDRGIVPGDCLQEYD

T9: Bzz1-1, P38822
T9 sequence (P38822 478-572, looked up): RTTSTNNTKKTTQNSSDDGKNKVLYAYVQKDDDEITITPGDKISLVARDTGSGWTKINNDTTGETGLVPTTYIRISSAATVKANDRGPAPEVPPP

T10: Nbp2, Q12163
T10 sequence (Q12163 103-180, looked up): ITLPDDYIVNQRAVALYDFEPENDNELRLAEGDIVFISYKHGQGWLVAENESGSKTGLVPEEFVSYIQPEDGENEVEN

T11: Boi1, P38041
T11 sequence (P38041 1-86, looked up): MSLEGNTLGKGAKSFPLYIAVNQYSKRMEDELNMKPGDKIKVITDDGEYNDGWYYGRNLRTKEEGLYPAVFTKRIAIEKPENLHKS

T12: Pin3, Q06449
T12 sequence (Q06449 53-122, looked up): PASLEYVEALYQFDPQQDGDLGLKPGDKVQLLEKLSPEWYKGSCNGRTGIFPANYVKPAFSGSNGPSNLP

T13: Lsb4, P32793
T13 sequence (P32793 402-468, looked up): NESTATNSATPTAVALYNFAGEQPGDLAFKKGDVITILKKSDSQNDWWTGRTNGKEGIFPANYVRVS

T14: Myo5, Q04439
T14 sequence (Q04439 1072-1160, looked up): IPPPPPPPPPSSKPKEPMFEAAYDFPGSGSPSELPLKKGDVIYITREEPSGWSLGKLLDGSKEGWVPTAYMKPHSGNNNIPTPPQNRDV

T15: Bbc1, P47068
T15 sequence (P47068 1-78, looked up): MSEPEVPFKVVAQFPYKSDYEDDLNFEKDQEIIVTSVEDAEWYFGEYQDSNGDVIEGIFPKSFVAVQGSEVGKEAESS

T16: Pex13, P80667
T16 sequence (P80667 295-386, looked up): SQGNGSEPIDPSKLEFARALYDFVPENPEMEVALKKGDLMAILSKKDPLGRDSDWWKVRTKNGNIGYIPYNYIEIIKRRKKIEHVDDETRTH

T17: Lsb3, P43603
T17 sequence (P43603 385-451, looked up): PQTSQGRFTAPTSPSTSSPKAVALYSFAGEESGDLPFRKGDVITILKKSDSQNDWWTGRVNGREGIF

T18: Lsb1, P53281
T18 sequence (P53281 45-122, looked up): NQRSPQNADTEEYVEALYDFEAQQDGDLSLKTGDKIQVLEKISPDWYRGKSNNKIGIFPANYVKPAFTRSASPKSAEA

T19: Abp1, P15891
T19 sequence (P15891 535-592, looked up): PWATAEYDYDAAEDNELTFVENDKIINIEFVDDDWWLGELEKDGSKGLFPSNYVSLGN

T20: Cdc25, P04821
T20 sequence (P04821 50-136, looked up): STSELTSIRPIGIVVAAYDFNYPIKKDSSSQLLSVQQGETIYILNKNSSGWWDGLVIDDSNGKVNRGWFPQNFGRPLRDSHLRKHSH

T21: Hse1, P38753
T21 sequence (P38753 208-285, looked up): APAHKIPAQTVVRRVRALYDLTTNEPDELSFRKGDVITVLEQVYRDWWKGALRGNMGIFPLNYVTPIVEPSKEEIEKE


Experiments:
Assay in all cases: SPOT array
Sla1-2, P32790 = target: T1, Sla1-2, P32790; conditions: median of control spots 712
Sla1-3, P32790 = target: T2, Sla1-3, P32790; conditions: median of control spots 5475
Bzz1-2, P38822 = target: T3, Bzz1-2, P38822; conditions: median of control spots 4538
Hof1, Q05080 = target: T4, Hof1, Q05080; conditions: median of control spots 4086
Cyk3, Q07533 = target: T5, Cyk3, Q07533; conditions: median of control spots 1451
Myo3, P36006 = conditions: median of control spots 468
Bud14, P27637 = target: T6, Bud14, P27637; conditions: median of control spots 956
Boi2, P39969 = target: T7, Boi2, P39969; conditions: median of control spots 1161
Fus1, P11710 = target: T8, Fus1, P11710; conditions: median of control spots 1200
Bzz1-1, P38822 = target: T9, Bzz1-1, P38822; conditions: median of control spots 4446
Nbp2, Q12163 = target: T10, Nbp2, Q12163; conditions: median of control spots 357
Boi1, P38041 = target: T11, Boi1, P38041; conditions: median of control spots 1162
Pin3, Q06449 = target: T12, Pin3, Q06449; conditions: median of control spots 2171
Lsb4, P32793 = target: T13, Lsb4, P32793; conditions: median of control spots 397
Myo5, Q04439 = target: T14, Myo5, Q04439; conditions: median of control spots 471
Bbc1, P47068 = target: T15, Bbc1, P47068; conditions: median of control spots 796
Sho1, P40073 = conditions: median of control spots 1148
Sho1, P40073, sequence (P40073 287-367): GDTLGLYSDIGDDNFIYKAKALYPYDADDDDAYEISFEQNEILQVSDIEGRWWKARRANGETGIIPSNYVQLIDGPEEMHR

GST = conditions: median of control spots 978
Pex13, P80667 = target: T16, Pex13, P80667; conditions: median of control spots 1341
Bem1-1, P29366 = conditions: median of control spots 4282
Bem1-1, P29366, sequence (P29366 55-141): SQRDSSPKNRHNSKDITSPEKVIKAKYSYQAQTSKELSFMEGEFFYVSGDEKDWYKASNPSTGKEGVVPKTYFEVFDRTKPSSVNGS

Lsb3, P43603 = target: T17, Lsb3, P43603; conditions: median of control spots 406
Bem1-2, P29366 = conditions: median of control spots 4347
Bem1-2, P29366, sequence (P29366 139-227): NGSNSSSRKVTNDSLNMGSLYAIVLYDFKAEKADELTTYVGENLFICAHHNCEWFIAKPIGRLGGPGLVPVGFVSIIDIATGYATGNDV

Lsb1, P53281 = target: T18, Lsb1, P53281; conditions: median of control spots 388
Abp1, P15891 = target: T19, Abp1, P15891; conditions: median of control spots 935
Cdc25, P04821 = target: T20, Cdc25, P04821; conditions: median of control spots 969
Hse1, P38753 = target: T21, Hse1, P38753; conditions: median of control spots 1727
Rvs167, P39743 = conditions: median of control spots 2707
Rvs167, P39743, sequence (P39743 419-482): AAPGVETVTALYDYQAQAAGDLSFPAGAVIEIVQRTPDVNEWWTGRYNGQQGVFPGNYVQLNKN

Row | SPOT intensity (Sla1-2, P32790) | SPOT intensity (Sla1-3, P32790) | SPOT intensity (Bzz1-2, P38822) | SPOT intensity (Hof1, Q05080) | SPOT intensity (Cyk3, Q07533) | SPOT intensity (Myo3, P36006) | SPOT intensity (Bud14, P27637) | SPOT intensity (Boi2, P39969) | SPOT intensity (Fus1, P11710) | SPOT intensity (Bzz1-1, P38822) | SPOT intensity (Nbp2, Q12163) | SPOT intensity (Boi1, P38041) | SPOT intensity (Pin3, Q06449) | SPOT intensity (Lsb4, P32793) | SPOT intensity (Myo5, Q04439) | SPOT intensity (Bbc1, P47068) | SPOT intensity (Sho1, P40073) | SPOT intensity (GST) | SPOT intensity (Pex13, P80667) | SPOT intensity (Bem1-1, P29366) | Binder | further results
1 | 1 | 0 | 2 | 1320 | 0 | 0 | 0 | 0 | 0 | 0 | 1 | 3 | 0 | 231 | 0 | 0 | 72 | 2 | 309 | 0 | QNTPPLPPKPKSPHL | SPOT intensity (Lsb3, P43603): 249; SPOT intensity (Bem1-2, P29366): 16; SPOT intensity (Lsb1, P53281): 0; SPOT intensity (Abp1, P15891): 16; SPOT intensity (Cdc25, P04821): 0; SPOT intensity (Hse1, P38753): 634; SPOT intensity (Rvs167, P39743): 8
2 | 2 | 0 | 360 | 10 | 5 | 0 | 3 | 3 | 1 | 10 | 0 | 0 | 1 | 0 | 0 | 2 | 21 | 3 | 4 | 0 | KKAPPPVVKPKPRNF | SPOT intensity (Lsb3, P43603): 0; SPOT intensity (Bem1-2, P29366): 0; SPOT intensity (Lsb1, P53281): 4; SPOT intensity (Abp1, P15891): 899; SPOT intensity (Cdc25, P04821): 15; SPOT intensity (Hse1, P38753): 0; SPOT intensity (Rvs167, P39743): 1

Second part, the binder before the results:

Row | Binder | SPOT intensity (Sla1-2, P32790) | SPOT intensity (Sla1-3, P32790) | SPOT intensity (Bzz1-2, P38822) | SPOT intensity (Hof1, Q05080) | SPOT intensity (Cyk3, Q07533) | SPOT intensity (Myo3, P36006) | SPOT intensity (Bud14, P27637) | SPOT intensity (Boi2, P39969) | SPOT intensity (Fus1, P11710) | SPOT intensity (Bzz1-1, P38822) | SPOT intensity (Nbp2, Q12163) | SPOT intensity (Boi1, P38041) | SPOT intensity (Pin3, Q06449) | SPOT intensity (Lsb4, P32793) | SPOT intensity (Myo5, Q04439) | SPOT intensity (Bbc1, P47068) | SPOT intensity (Sho1, P40073) | SPOT intensity (GST) | SPOT intensity (Pex13, P80667) | SPOT intensity (Bem1-1, P29366) | further results
3 | SSSSSPPPLPTRRDH | 0 | 7 | 3 | 16 | 1 | 69 | 0 | 4 | 1 | 6 | 0 | 4 | 0 | 748 | 19 | 3 | 0 | 1 | 467 | 8 | SPOT intensity (Lsb3, P43603): 485; SPOT intensity (Bem1-2, P29366): 13; SPOT intensity (Lsb1, P53281): 463; SPOT intensity (Abp1, P15891): 0; SPOT intensity (Cdc25, P04821): 15; SPOT intensity (Hse1, P38753): 4; SPOT intensity (Rvs167, P39743): 3540
4 | ATKSASPTLPTRRSR | 8 | 1 | 1 | 0 | 1 | 12 | 8 | 0 | 2 | 3 | 2 | 3 | 20 | 1180 | 0 | 79 | 132 | 1 | 249 | 3 | SPOT intensity (Lsb3, P43603): 834; SPOT intensity (Bem1-2, P29366): 18; SPOT intensity (Lsb1, P53281): 56; SPOT intensity (Abp1, P15891): 182; SPOT intensity (Cdc25, P04821): 22; SPOT intensity (Hse1, P38753): 2; SPOT intensity (Rvs167, P39743): 1540

— PMC2756588
